Experimental data taken from patent publication US20260097105A1, “SYSTEMS, FORMULATIONS AND METHODS FOR GENERATING UNIVERSAL PEPTIDE/MHC COMPLEXES WITH ENGINEERED DISULFIDE CONNECTING THE HEAVY AND LIGHT CHAINS” (priority 2022, published 2026).

B1: … (peptide)
chain: ALIDVFHQY
B2: … (peptide)
peptide: KYNPIRTTF
modifications: not checked

What was measured:
[1] = target: WT HLA-A*29:02/β2m/[…] (human); assay: competition; settings: chains peptide; modification not given
[2] = target: open HLA-A*24:02 (G120C)/β2m (H31C)/… (human); assay: fluorescence polarization, peptide exchange, 200 nM pMHC

Binder	IC50 [1] [nM]	fold of peptide exchange kinetics (Kassoc.) against WT HLA-A*24:02 [2] [fold]
B1	49	–
B2	–	6
